# Assay results: IntAct's records for PubMed 25327252
# B1: E3 ubiquitin-protein ligase RNF146 (Homo sapiens), Q9NTX7 (parent)
# chain: MMAGCGEIDHSINMLPTNRKANESCSNTAPSLTVPECAICLQTCVHPVSLPCKHVFCYLCVKGASWLGKRCALCRQEIPEDFLDKPTLLSPEELKAASRGNGEYAWYYEGRNGWWQYDERTSRELEDAFSKGKKNTEMLIAGFLYVADLENMVQYRRNEHGRRRKIKRDIIDIPKKGVAGLRLDCDANTVNLARESSADGADSVSAQSGASVQPLVSSVRPLTSVDGQLTSPATPSPDASTSLEDSFAHLQLSGDNTAERSHRGEGEEDHESPSSGRVPAPDTSIEETESDASSDSEDVSAVVAQHSLTQQRLLVSNANQTVPDRSDRSGTDRSVAGGGTVSVSVRSRRPDGQCTVTEV
# Variants of: B1
# Details: with tnks1_human TNKS
row,effect of a mutation on the interaction,Variant
1,decreasing interaction strength,G200V
2,decreasing interaction strength,G200V;G338V;G339V

# Variants of: B1
# Details: with tnks1_human TNKS
# Remark: another data set of the same source
row,effect of a mutation on the interaction,Variant
1,decreasing interaction strength,G338V;G339V
